Values quoted from earlier work in patent US8443799B2, “Dry powder inhalation system for transpulmonary administration” (Otsuka Pharmaceutical Co., Ltd., priority 2001, dated 2013).

Conditions: disclosure in WO 95/31479

interferon
deactivation during the spray drying process: about 25%
